In US20040053349A1, “Direct selection of protein complexes relevant to physiological or diagnostic context of a biological specimen” (priority 2000, published 2004):

System: trypsin
Assay: Trypsin treatment of enzyme-spiked dialyzed human serum with or without ligand solutions, then residual enzyme activity assay
Type: biochemical
Settings: for Relative residual activity [percent of untreated], LSA: LSA (ATP, XMP, CMP, NADP, NADPH) added before treatment with trypsin; for Relative residual activity [percent of untreated], LSA + LSB: LSA and LSB both added before treatment with trypsin; for Relative residual activity [percent of untreated], LSB: LSB (glucose, L-aspartic acid, D,L-asparagine, creatine, D,L-glyceraldehyde-3-P) added before treatment with trypsin
Method: 2. Ligand solutions (LS) are composed as follows:
One) ATP, XMP, CMP, NADP and NADPH are included in ligand solution LSA; and
Two) Glucose, L-aspartic acid, D,L-asparagine, creatine, D,L-glyceraidehyde-3-P are included in ligand solution LSB.
2. The serum is treated with trypsin in the absence and presence of LSA or LSB, or both. At the end of the treatment samples are assayed for enzyme activity. For details see Table 1.

| Molecule | Relative residual activity [percent of untreated], LSA | Relative residual activity [percent of untreated], LSA + LSB | Relative residual activity [percent of untreated], LSB |
| --- | --- | --- | --- |
| Asparaginase | 9% of untreated | 90% of untreated | 89% of untreated |
| Ribonuclease A: enzyme preparation spiked into dialyzed serum sample (protein, UniProt P61823 27-150, looked up) Ribonuclease pancreatic: KETAAAKFERQHMDSSTSAASSSNYCNQMMKSRNLTKDRCKPVNTFVHESLADVQAVCSQKNVACKNGQTNCYQSYSTMSITDCRETGSSKYPNCAYKTTQANKHIIVACEGNPYVPVHFDASV | 93% of untreated | 93% of untreated | 11% of untreated |
